From article PMC6934155

Experiments:
[1] = target: Rad3/Rad26 (ATR/ATRIP homolog in Schizosaccharomyces pombe) with TAPm-Rad3 (S. pombe) (UniProt Q02099); assay: co-IP
[2] = target: Fatty acid synthase (FAS) of S. pombe, co-purified with Rad3/Rad26 (S. pombe) (UniProt Q9UUG0)

fold of co-precipitation compared with control (CPT-treated cells) [1] [times]	fold of co-precipitation compared with control (MMS-treated cells) [1] [times]	specific (catalytic) activity of co-purified FAS relative to apo-state FAS [2] [%]	Substance
1.79	2.01		Apo-state fatty acid synthase (FAS) of S. pombe with Fas1-FLAG, Q9UUG0 1-2073; Q10289 1-1842
		23.3	Rad3/Rad26 (ATR/ATRIP homolog in Schizosaccharomyces pombe) with TAPm-Rad3, Q02099 1-2386; P36632 1-614
